Experimental findings from patent publication US20180201677A1 (ERASMUS UNIVERSITY MEDICAL CENTER, published 2018) are described below.

The target of test [1] is T1, human CD47 (human, UniProt Q08722 19-323). Description: flow cytometry, titration of SIRPα-Fc-bio on Jurkat cells. For orientation: Flow cytometry measures light scatter and fluorescence of single cells or particles in a stream.
Test [2] deals with T1, human CD47. Briefly: cell-based or functional assay.

Consider “biotinylated fusion protein of SIRPα (SIRPα-Fc-bio) (Fc fusion)”, for which the EC70 in the test with human CD47 [1] amounted to 7.5 µg/mL.

B1: anti-CD47 antibody 2.3D11 (antibody, V domains shown)
VH: QVQLQESGPGLVKPSGTLSLTCAVSGVSIRSINWWNWVRQPPGKGLEWIGEIYHSGSTNYNPSLKSRVTISVDKSKNQFSLKLNSVTAADTAVYYCARDGGIAVTDYYYYGLDVWGQGTTVTVSS
VL: EIVLTQSPATLSLSPGERATLSCRASESVSSNLAWYQQKPGQAPRLLIYGAFNRATGIPARFSGSGSGTDFTLTISSLEPEDFAVYYCQQRSDWFTFGGGTKVEIKR
In the case of B1, in the test with human CD47 [2], the “phagocytosis of Raji tumor cell line targets by primary human macrophages (EC50)” value was roughly 300 ng/mL.

Broadly, the EC70 is the concentration needed for an effect of 70%.
